Values of other authors in paper PMC8174103.

Target: EGFR (Homo sapiens) (UniProt P00533)

EGF (from UniProt P01133)
Kd: 2 nM
